This is an account of results in article PMC4326527.

The assay has as its target UAF1-mRFP (UniProt Q8TAF3). Briefly: nuclear relocation assay. As to conditions: 293T cells co-transfected with UAF1-mRFP; at least 100 cells per slide; three independent experiments; parent: est. 10; read off a plot.
UniProt Q8TAF3, sequence (Q8TAF3 whole entry): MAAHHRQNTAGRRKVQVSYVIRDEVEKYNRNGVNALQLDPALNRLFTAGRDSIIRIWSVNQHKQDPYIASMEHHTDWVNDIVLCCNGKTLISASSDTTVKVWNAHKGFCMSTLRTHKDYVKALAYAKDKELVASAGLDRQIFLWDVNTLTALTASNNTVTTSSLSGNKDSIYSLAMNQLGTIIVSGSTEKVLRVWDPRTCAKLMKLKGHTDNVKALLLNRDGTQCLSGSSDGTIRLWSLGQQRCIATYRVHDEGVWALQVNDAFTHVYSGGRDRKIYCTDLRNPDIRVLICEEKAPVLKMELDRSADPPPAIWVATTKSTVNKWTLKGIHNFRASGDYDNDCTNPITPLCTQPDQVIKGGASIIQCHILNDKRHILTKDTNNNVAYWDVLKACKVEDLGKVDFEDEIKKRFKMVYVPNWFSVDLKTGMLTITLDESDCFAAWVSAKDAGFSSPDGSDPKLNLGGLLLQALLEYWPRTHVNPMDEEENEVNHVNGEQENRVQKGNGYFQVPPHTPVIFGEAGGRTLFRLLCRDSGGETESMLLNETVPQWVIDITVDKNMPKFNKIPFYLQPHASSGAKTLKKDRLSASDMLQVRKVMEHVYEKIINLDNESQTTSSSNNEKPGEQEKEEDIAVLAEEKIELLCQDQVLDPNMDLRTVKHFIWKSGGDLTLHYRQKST

Consider YFP-USP1(del420-520) S313D, for which the other: UAF1-mRFP N/C localization (% of cells), nuclear/cytoplasmic (N/C) class was 12 % of cells.
